What is called Kd is the free concentration of one partner at which half of the binding sites on the other are occupied at equilibrium, for simple one-to-one binding. A higher Kd goes with lower affinity.

Results on two molecules are retold here after patent US20260022175A1 (Chugai, published 2026).

The target of assay [1] is hFcγRIIIaV on hFcγRIIIaV-expressing Jurkat cells (human, UniProt P08637 17-254). Put plainly: cell-based or functional assay.
Assay [2] has as its target T1, hFcγRIIaH on hFcγRIIaH-expressing Jurkat cells (human, UniProt P12318 34-317).
T1 sequence (looked up): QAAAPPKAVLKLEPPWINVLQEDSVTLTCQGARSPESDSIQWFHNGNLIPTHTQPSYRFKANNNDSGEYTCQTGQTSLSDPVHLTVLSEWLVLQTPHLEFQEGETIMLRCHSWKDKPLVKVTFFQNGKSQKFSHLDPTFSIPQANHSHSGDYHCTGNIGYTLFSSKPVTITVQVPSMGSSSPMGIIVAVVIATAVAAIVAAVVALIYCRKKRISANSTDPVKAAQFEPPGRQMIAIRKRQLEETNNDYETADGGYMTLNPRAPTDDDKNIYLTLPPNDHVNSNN
Put plainly: cell-based or functional assay.

For assay [3], the target named is T2, human FcγRIa extracellular domain (human, UniProt P12314 16-292).
T2 construct: extracellular domain; also called hFcγR Ia; hFcγRIa
The assay can be described thus: SPR Biacore 8K+; KD of G1d divided by KD of this antibody.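 Note: antibodies captured on an anti-Fab-kappa streptavidin chip, soluble FcγR ectodomains flowed over, KD by steady-state fit for FcγRIIb and Langmuir kinetic model for the other receptors.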 In general terms: In SPR one partner is held on a chip, and binding of the other changes the refractive index at the surface.
Method: (§1) The interaction between the produced antibodies and human FcγRs was analyzed using Biacore 8K+ by the method below. For the running buffer, 50 mM Na-Phosphate, 150 mM NaCl, and 0.05% Tween20 (pH 7.4) was used, and measurement was performed at 25° C. The sensor chip used was a Series S SA chip (GE Healthcare) onto which CaptureSelect Human Fab-kappa Kinetics Biotin Conjugate (Thermo Fisher Scientific) was immobilized. An antibody of interest was captured onto this chip, and each FcγR diluted with the running buffer was allowed to interact with it. The chip was regenerated using 10 mM Glycine-HCl (pH 1.5), and repeatedly used to capture antibodies and perform measurement. The dissociation constants KD (mol/L) of each antibody for FcγRs were calculated using Biacore Insight Evaluation Software, with a steady state affinity model for the dissociation constant for FcγRIIb and a 1:1 Langmuir binding model for the dissociation constants for the other FcγRs (Table 48).

In assay [4] the target is T3, human FcγRIIa H extracellular domain (human, UniProt P12318 34-217).
T3 construct: extracellular domain; also called hFcγR IIa H
T3 sequence (looked up): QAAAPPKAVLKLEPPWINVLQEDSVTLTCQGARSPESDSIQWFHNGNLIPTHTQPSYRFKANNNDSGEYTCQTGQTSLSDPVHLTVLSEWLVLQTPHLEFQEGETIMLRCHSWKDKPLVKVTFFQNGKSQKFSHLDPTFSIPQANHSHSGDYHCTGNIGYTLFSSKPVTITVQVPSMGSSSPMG
The description is as above.
Method: as §1

The target in assay [5] is T4, human FcγRIIa R extracellular domain (human, UniProt P12318 34-217).
T4 construct: extracellular domain; also called hFcγR IIa R
T4 sequence (looked up): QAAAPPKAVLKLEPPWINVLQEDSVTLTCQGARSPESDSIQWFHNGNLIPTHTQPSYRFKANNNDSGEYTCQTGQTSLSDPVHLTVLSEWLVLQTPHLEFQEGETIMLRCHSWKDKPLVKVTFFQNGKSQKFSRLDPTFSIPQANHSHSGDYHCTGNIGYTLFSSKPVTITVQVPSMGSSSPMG
The assay is described as above.
Method: as §1

For assay [6], the target named is T5, human FcγRIIb extracellular domain (human, UniProt P31994 43-217).
T5 construct: extracellular domain; also called hFcγR IIb
T5 sequence (looked up): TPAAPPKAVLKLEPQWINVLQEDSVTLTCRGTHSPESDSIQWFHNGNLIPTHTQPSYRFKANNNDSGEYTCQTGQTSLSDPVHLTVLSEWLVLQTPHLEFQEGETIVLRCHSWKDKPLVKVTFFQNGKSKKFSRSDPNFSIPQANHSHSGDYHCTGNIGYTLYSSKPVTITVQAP
The description is as above.
Method: as §1

Assay [7] concerns the target T6, human FcγRIIIa F extracellular domain (human, UniProt P08637 17-208).
T6 construct: extracellular domain; also called hFcγR IIIa F
The description is as above.
Method: as §1

Assay [8] concerns the target T7, human FcγRIIIa V extracellular domain (human, UniProt P08637 17-208).
T7 construct: extracellular domain; also called hFcγR IIIa V
The assay is described as above.
Method: as §1

The target of assay [9] is T3, human FcγRIIa H extracellular domain. Put plainly: SPR Biacore 8K+; KD for FcγRIIb divided by KD for this FcγR.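 Note: antibodies captured on an anti-human Fab kappa SA chip with soluble human FcγR ectodomains flowed over, FcγRIIb KD from steady-state fit, other FcγR KD from Langmuir model.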
Assay [10] deals with T4, human FcγRIIa R extracellular domain. The description is as above.
The target in assay [11] is T6, human FcγRIIIa F extracellular domain. The assay is described as above.
Assay [12] concerns the target T7, human FcγRIIIa V extracellular domain. Described as above.
Assay [13] addresses T2, human FcγRIa extracellular domain. Put plainly: SPR Biacore 8K+, antibody captured, FcγR as analyte, 1:1 Langmuir model.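 Note: antibodies captured on a streptavidin chip through a biotinylated anti-human Fab kappa reagent, with FcγR extracellular domains injected in pH 7.4 phosphate buffer at 25 °C.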
Method: as §1
The target of assay [14] is T3, human FcγRIIa H extracellular domain. The description is as above.
Method: as §1
The target of assay [15] is T4, human FcγRIIa R extracellular domain. The assay is described as above.
Method: as §1
For assay [16], the target named is T6, human FcγRIIIa F extracellular domain. The assay is described as above.
Method: as §1
Assay [17] deals with T7, human FcγRIIIa V extracellular domain. The assay is described as above.
Method: as §1
The target of assay [18] is T5, human FcγRIIb extracellular domain. The assay can be described thus: SPR Biacore 8K+, antibody captured, FcγR as analyte, steady state affinity model.
In assay [19] the target is T8, human FcγRIa extracellular domain with C-terminal His-tag (human, UniProt P12314 16-292).
T8 construct: extracellular domain; also called hFcγR Ia; hFcγRIa
The assay can be described thus: SPR Biacore T200, Ab captured via Fab-lambda, pH 7.4, 25C.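 Note: antibodies captured on a streptavidin chip carrying biotinylated anti-Fab-lambda, with each FcγR injected as analyte in phosphate buffer. KD fitted by 1:1 Langmuir or steady-state model depending on receptor.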
Method: (§2) The interaction between the generated antibodies and human FcγRs was analyzed by the following method using Biacore T200. 50 mM Na-Phosphate, 150 mM NaCl, 0.05% Tween20 (pH 7.4) was used as the running buffer, and the assay was performed at 25° C. For the sensor chips, Series S SA (GE Healthcare) chips onto which CaptureSelect Human Fab-lambda Kinetics Biotin Conjugate (Thermo Fisher Scientific) was immobilized were used. The antibodies of interest were captured onto these chips and each FcγR diluted in the running buffer was allowed to interact with them. Chips were regenerated with 10 mM Glycine-HCl (pH 1.5) and 25 mM NaOH, and assay was performed by repeatedly capturing antibodies. The dissociation constants KD (mol/L) for FcγRs of each antibody were calculated using Biacore T200 Evaluation Software 2.0, using the 1:1 Langmuir binding model for FcγRIa and FcγRIIIa and the steady state affinity model for FcγRIIa. For FcγRIIb, the binding amount of FcγRIIb per unit amount of antibody was calculated by correcting the binding amount of FcγRIIb obtained from the sensorgram obtained by the measurement with the amount of antibody captured onto the chip surface.

Assay [20] concerns the target T9, human FcγRIIa R allotype extracellular domain with C-terminal His-tag (human, UniProt P12318 34-217).
T9 construct: extracellular domain; also called hFcγR IIa R
T9 sequence (looked up): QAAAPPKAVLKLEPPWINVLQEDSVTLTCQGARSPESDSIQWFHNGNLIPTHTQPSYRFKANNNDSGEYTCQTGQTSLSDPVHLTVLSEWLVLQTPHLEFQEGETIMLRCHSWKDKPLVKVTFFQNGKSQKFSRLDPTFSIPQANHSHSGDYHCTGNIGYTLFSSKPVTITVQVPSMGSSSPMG
The description is as above.
Method: as §2

Assay [21] concerns the target T10, human FcγRIIa H allotype extracellular domain with C-terminal His-tag (human, UniProt P12318 34-217).
T10 construct: extracellular domain; also called hFcγR IIa H
T10 sequence (looked up): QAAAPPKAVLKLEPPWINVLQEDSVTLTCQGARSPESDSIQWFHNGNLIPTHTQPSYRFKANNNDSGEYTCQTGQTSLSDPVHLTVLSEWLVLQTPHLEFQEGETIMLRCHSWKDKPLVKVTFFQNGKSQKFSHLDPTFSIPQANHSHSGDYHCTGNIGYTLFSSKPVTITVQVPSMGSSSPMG
The description is as above.
Method: as §2

Assay [22] has as its target T11, human FcγRIIIa F allotype extracellular domain with C-terminal His-tag (human, UniProt P08637 17-208).
T11 construct: extracellular domain; also called hFcγR IIIa F
Described as above.
Method: as §2

Assay [23] concerns the target T12, human FcγRIIIa V allotype extracellular domain with C-terminal His-tag (human, UniProt P08637 17-208).
T12 construct: extracellular domain; also called hFcγR IIIa V
Described as above.
Method: as §2

Assay [24] has as its target T13, human FcγRIIb extracellular domain with C-terminal His-tag (human, UniProt P31994 43-217).
T13 construct: extracellular domain; also called hFcγR IIb
T13 sequence (looked up): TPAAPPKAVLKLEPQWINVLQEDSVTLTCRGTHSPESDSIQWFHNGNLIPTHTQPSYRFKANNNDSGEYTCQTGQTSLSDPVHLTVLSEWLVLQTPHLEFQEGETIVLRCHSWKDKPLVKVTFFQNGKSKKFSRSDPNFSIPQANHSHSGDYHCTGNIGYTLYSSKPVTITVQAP
The assay can be described thus: SPR; FcγRIIb at 1000 nM, bound amount per unit captured Ab.
Method: as §2

The target in assay [25] is T14, human FcRn (human, UniProt P55899 24-290; P61769 21-119).
T14 construct: Prepared by the method of WO 2010/107110; also called hFcRn
The assay can be described thus: SPR; KD of 04H1637-G1m/04L1610-lam1 divided by KD of variant.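 Note: biacore T200 SPR at 25 °C, antibodies captured on anti-Fab-lambda SA chip with receptor as analyte, running buffer pH 7.4 for FcγRs and pH 6.0 for FcRn.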

Assay [26] concerns the target T8, human FcγRIa extracellular domain with …. Described as above.
The target of assay [27] is T9, human FcγRIIa R allotype extracellular …. The description is as above.
The target in assay [28] is T10, human FcγRIIa H allotype extracellular …. Described as above.
For assay [29], the target named is T11, human FcγRIIIa F allotype extracellular …. Described as above.
In assay [30] the target is T12, human FcγRIIIa V allotype extracellular …. The assay is described as above.
For assay [31], the target named is T13, human FcγRIIb extracellular domain with …. The assay can be described thus: SPR; binding amount divided by that of 04H1637-G1m/04L1610-lam1.
For assay [32], the target named is T14, human FcRn. The assay can be described thus: SPR Biacore T200, Ab captured via Fab-lambda, pH 6.0, 25C, steady state.
Method: The interaction between the generated antibodies and human FcRn was analyzed by the following method using Biacore T200. 50 mM Na-Phosphate, 150 mM NaCl, 0.05% Tween20 (pH 6.0) was used as the running buffer, and the assay was performed at 25° C. For the sensor chip, Series S SA (GE Healthcare) chips onto which CaptureSelect Human Fab-lambda Kinetics Biotin Conjugate (Thermo Fisher Scientific) was immobilized were used. The antibodies of interest were captured onto these chips and FcRn diluted in the running buffer was allowed to interact with them. Chips were regenerated with 10 mM Glycine-HCl (pH 1.5) and 25 mM NaOH, and assay was performed by repeatedly capturing antibodies. The dissociation constant for FcRn of each antibody was calculated using the steady state model, using Biacore T200 Evaluation Software 2.0.

T7 sequence (P08637 17-208 F176V limits assumed): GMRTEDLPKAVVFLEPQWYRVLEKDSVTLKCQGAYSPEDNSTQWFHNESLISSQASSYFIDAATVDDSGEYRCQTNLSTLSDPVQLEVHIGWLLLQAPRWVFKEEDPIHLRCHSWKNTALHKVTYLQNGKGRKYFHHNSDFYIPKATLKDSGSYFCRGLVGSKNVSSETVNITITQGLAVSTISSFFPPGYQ
T6 sequence (P08637 17-208): as the sequence (P08637 17-208 F176V limits assumed) above, with V160F counted along it
T2 sequence (P12314 16-292): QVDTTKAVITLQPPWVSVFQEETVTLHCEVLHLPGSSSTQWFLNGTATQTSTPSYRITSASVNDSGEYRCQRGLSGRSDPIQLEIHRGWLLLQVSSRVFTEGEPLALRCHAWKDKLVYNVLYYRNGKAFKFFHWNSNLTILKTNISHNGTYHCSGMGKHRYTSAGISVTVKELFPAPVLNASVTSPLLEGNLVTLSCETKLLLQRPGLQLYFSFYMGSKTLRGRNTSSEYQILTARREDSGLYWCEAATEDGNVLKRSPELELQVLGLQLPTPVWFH
T8 sequence (P12314 16-292): as above
T14 sequence (P55899 24-290 limits assumed, chain 1 of 2): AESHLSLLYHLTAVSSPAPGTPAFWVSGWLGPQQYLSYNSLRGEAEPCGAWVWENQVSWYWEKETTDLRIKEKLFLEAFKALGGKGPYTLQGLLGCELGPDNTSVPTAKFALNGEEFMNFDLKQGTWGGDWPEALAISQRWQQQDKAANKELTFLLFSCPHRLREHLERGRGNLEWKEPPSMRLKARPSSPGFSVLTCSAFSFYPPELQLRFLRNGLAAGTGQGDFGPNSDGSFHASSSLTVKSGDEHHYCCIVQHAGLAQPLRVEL
T14 sequence (P61769 21-119 limits assumed, chain 2 of 2): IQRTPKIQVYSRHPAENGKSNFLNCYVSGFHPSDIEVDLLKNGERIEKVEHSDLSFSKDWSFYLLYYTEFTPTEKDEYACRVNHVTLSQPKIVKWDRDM
T12 sequence (P08637 17-208 F176V): as the sequence (P08637 17-208 F176V limits assumed) above
T11 sequence (P08637 17-208): as the sequence (P08637 17-208 F176V limits assumed) above, with V160F counted along it
hFcγRIIIaV on hFcγRIIIaV-expressing Jurkat cells, sequence (P08637 17-254, form in doubt): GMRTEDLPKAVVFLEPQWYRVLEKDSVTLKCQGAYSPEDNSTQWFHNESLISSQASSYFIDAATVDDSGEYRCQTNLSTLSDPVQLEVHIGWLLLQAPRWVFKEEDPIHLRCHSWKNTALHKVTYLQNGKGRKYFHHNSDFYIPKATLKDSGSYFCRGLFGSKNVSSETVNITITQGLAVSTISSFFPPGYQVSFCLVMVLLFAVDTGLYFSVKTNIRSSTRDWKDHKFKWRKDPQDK

B1: H240-Kn498/L73-k0//H240-Hl518/L73-k0 (antibody, human IgG1, kappa)
heavy 1: QDQLVQSGAEVKKPGASVKVSCKASGFNIKDTYIQWVRQAPGQGLEWMGRIDPLRKQTKYREKFEGRVTITADTSTNTAYMELSSLRSEDTAVYYCVRSGREFDYWGQGTLVTVSSASTKGPSVFPLAPSSKSTSGGTAALGCLVKDYFPEPVTVSWNSGALTSGVHTFPAVLQSSGLYSLSSVVTVPSSSLGTQTYICNVNHKPSNTKVDKKVEPKSCDKTHTCPPCPAPEFQWGPMVFLFPPKPKDVLMISRTPEVTCVVVDVSDEEPEVKFNWYVDGVEVHNAKTKPREEQYNATYRVVSVLPVLHQDWLNGKEYKCKVSNKALPMPIEKTISKAKGQPREPQVCTLPPSRDELTKNQVSLWCLVKGFYPSDIAVEWESNGQPENNYKTTPPVLDSDGSFFLYSKLTVDKSRWQQGNVFSCSVMHEALHNHYTQKSLSLSP
heavy 2: QDQLVQSGAEVKKPGASVKVSCKASGFNIKDTYIQWVRQAPGQGLEWMGRIDPLRKQTKYREKFEGRVTITADTSTNTAYMELSSLRSEDTAVYYCVRSGREFDYWGQGTLVTVSSASTKGPSVFPLAPSSKSTSGGTAALGCLVKDYFPEPVTVSWNSGALTSGVHTFPAVLQSSGLYSLSSVVTVPSSSLGTQTYICNVNHKPSNTKVDKKVEPKSCDKTHTCPPCPAPELLGGPSVFLFPPKPKDVLMISRTPEVTCVVVDVSHEEPEVKFNWYVDGVEVHNAKTKPREEQYNATYRVVSVLPVLHQDWLNGKEYKCKVSNDALPMPIEETISKAKGQPREPQVYTLPPSRCELTKNQVSLSCAVKGFYPSDIAVEWESNGQPENNYKTTPPVLDSDGSFFLVSKLTVDKSRWQQGNVFSCSVMHEALHNHYTQKSLSLSP
light: DIQMTQSPSSLSASVGDRVTITCRASQDIHKYIAWYQQKPGQAPRLLIQYTSTLQPGVPSRFSGSGSGTDYTFTISSLQPEDIATYYCLQYEQLRTFGGGTKVEIKRTVAAPSVFIFPPSDEQLKSGTASVVCLLNNFYPREAKVQWKVDNALQSGNSQESVTEQDSKDSTYSLSSTLTLSKADYEKHKVYACEVTHQGLSSPVTKSFNRGEC
notes: also called EGL-ART12; ART12
On to B1, for which, in assay [1], the “EC50 value (hFcγRIIIaV ADCC Reporter Bioassay, Hepa1-6/hEREG target cells)” value worked out at 0.000304 µg/mL. Moreover, in assay [2], the “EC50 value (hFcγRIIaH ADCP Reporter Bioassay, Hepa1-6/hEREG target cells)” value amounted to 0.085 µg/mL. In addition, the “Relative value to KD between G1d and hFcgRs” value in assay [3] was found to be 3.4; in assay [4], 3.1; in [5] it was 1; in assay [6], 0.5; in [7] it was 578; in assay [8] it was 158. Also, the “A/I ratio (KD for FcγRIIb divided by KD for each FcγR)” value turned out to be 60.3 in assay [9], 12.8 in assay [10], 4310 in [11] and 9720 in [12]. Moreover, the Kd in assay [13] came out at 0.0261 nM; in assay [14], 366 nM; in assay [15], 1720 nM; in assay [16], 5.12 nM; in [17] it was 2.27 nM; in assay [18], 22100 nM.

B2: 04H1637-G1m/04L1610-lam1 (antibody, human IgG1, lambda)
heavy: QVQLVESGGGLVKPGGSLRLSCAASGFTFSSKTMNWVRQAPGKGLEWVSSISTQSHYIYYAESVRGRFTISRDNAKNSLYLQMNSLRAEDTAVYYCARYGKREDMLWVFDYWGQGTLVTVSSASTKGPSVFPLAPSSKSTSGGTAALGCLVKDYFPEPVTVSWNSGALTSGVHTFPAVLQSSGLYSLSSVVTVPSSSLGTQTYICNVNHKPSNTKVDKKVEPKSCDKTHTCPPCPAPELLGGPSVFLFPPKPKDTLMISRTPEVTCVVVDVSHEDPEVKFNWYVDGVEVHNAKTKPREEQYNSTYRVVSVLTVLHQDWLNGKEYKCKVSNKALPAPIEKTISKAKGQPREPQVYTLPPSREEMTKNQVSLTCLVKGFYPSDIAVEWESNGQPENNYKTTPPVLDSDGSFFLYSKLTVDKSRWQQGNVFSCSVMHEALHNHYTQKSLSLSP
light: QSALTQPPSASGSPGQSVTISCEGPSTGVGDYNWVHWYQQHPGKAPKLMIYFTSKKPSGVPDRFSGSKSGNTASLTVSGLQAEDEADYYCQTYAAPLGPMFGGGTKLTVLGQPKAAPSVTLFPPSSEELQANKATLVCLISDFYPGAVTVAWKADSSPVKAGVETTTPSKQSNNKYAASSYLSLTPEQWKSHRSYSCQVTHEGSTVEKTVAPTECS
Consider B2, for which the Kd in assay [19] is 0.049 nM; in assay [20], 2000 nM; in assay [21], 1500 nM; in [22] it was 1400 nM; in assay [23], 240 nM; in assay [32], 1300 nM. Moreover, the Binding amount in assay [24] came out at 0.008. Moreover, the “Relative value to KD between G1m and hFcRn” value in assay [25] is 1. Besides, the “Relative value to KD between G1m and hFcγRs” value in [26], in assay [27], in [28], in assay [29] and in assay [30] was 1 throughout. In assay [31], this molecule returned a Relative binding amount of 1.
